Experimental data published in the supplement of paper PMC11246515.
± gives the standard deviation of the averaged measurements.

Assay: total protein half-life in vivo (active degradation + dilution); higher = more stable protein
[1] = E. coli NCM3722 delta-clpP delta-lon delta-hslV, growth: N-lim chemostat, doubling time 6 h
[2] = E. coli NCM3722 delta-hslV, growth: N-lim chemostat, doubling time 6 h
[3] = E. coli NCM3722 delta-lon, growth: N-lim chemostat, doubling time 6 h
[4] = E. coli NCM3722 delta-smpB, growth: N-lim chemostat, doubling time 6 h
[5] = wild type E. coli NCM3722, growth: C-lim chemostat, doubling time 3 h
[6] = wild type E. coli NCM3722, growth: C-lim chemostat, doubling time 6 h
[7] = wild type E. coli NCM3722, growth: C-lim chemostat, doubling time 12 h
[8] = wild type E. coli NCM3722, growth: N-lim chemostat, doubling time 6 h
[9] = wild type E. coli NCM3722, growth: N-lim chemostat, doubling time 12 h
[10] = wild type E. coli NCM3722, growth: P-lim chemostat, doubling time 6 h
[11] = wild type E. coli NCM3722, growth: P-lim chemostat, doubling time 12 h
[12] = E. coli NCM3722 delta-clpP, growth: N-lim chemostat, doubling time 6 h

Sequence | total protein half-life in vivo [1] | total protein half-life in vivo [2] | total protein half-life in vivo [3] | total protein half-life in vivo [4] | total protein half-life in vivo [5] | total protein half-life in vivo [6] | total protein half-life in vivo [7] | total protein half-life in vivo [8] | total protein half-life in vivo [9] | total protein half-life in vivo [10] | total protein half-life in vivo [11] | total protein half-life in vivo [12]
MANWLNQLQSLLGQSSSSTSSSADQGLVKLLVPGALGGLAGLLVANKSARKLLTKYGTNALLVGGGAVAGTVLWNKYKDKIRAAHQDEPQFGAQSTPLDERTARLILALVFAAKSDGHIDAKERAAIDQQLRGAGVEEQGRVLIEQAIEQPLDPQRLATGVRNEEEALEIYFLSCAAIDIDHFMERSYLNALGDALKIPQDVRDGIERDLEQQKRTLAE | 5.293 ± 0.0053 h | 3.74 ± 0.12 h | 3.56 ± 0.13 h | 4.47 ± 0.86 h | 2.22 ± 0.19 h | 4.49 ± 0.37 h | 9.68 ± 3.4 h | 4.91 ± 1.6 h | 8.34 ± 0.38 h | 3.34 ± 0.58 h | 5.708 ± 0.041 h | 
MAQEIELKFIVNHSAVEALRDHLNTLGGEHHDPVQLLNIYYETPDNWLRGHDMGLRIRGENGRYEMTMKVAGRVTGGLHQRPEYNVALSEPTLDLAQLPTEVWPNGELPADLASRVQPLFSTDFYREKWLVAVDGSQIEIALDQGEVKAGEFAEPICELELELLSGDTRAVLKLANQLVSQTGLRQGSLSKAARGYHLAQGNPAREIKPTTILHVAAKADVEQGLEAALELALAQWQYHEELWVRGNDAAKEQVLAAISLVRHTLMLFGGIVPRKASTHLRDLLTQCEATIASAVSAVTAVYSTETAMAKLALTEWLVSKAWQPFLDAKAQGKISDSFKRFADIHLSRHAAELKSVFCQPLGDRYRDQLPRLTRDIDSILLLAGYYDPVVAQAWLENWQGLHHAIATGQRIEIEHFRNEANNQEPFWLHSGKR | 5.73 ± 0.11 h | 5.22 ± 0.088 h | 4.91 ± 1.1 h | 4.78 ± 0.12 h | 3.09 ± 0.13 h | 6.25 ± 0.19 h | 10.7 ± 1.1 h | 5.37 ± 0.26 h | 8.65 ± 0.74 h | 6.02 ± 0.58 h | 11.6 ± 1.1 h | 5.48 ± 0.56 h
MAQEYTVEQLNHGRKVYDFMRWDYWAFGISGLLLIAAIVIMGVRGFNWGLDFTGGTVIEITLEKPAEIDVMRDALQKAGFEEPMLQNFGSSHDIMVRMPPAEGETGGQVLGSQVLKVINESTNQNAAVKRIEFVGPSVGADLAQTGAMALMAALLSILVYVGFRFEWRLAAGVVIALAHDVIITLGILSLFHIEIDLTIVASLMSVIGYSLNDSIVVSDRIRENFRKIRRGTPYEIFNVSLTQTLHRTLITSGTTLMVILMLYLFGGPVLEGFSLTMLIGVSIGTASSIYVASALALKLGMKREHMLQQKVEKEGADQPSILP [P0AG93] |  | 6.16 h | 5.2883 ± 0.0031 h |  | 3.4 ± 0.44 h | 5.67 ± 0.76 h | 8.4 ± 5.1 h |  | 10.2 ± 0.42 h | 6.06 ± 1 h |  | 
MAQFYSAKRRTTTRQIITVSVNDLDSFGQGVARHNGKTLFIPGLLPQENAEVTVTEDKKQYARAKVVRRLSDSPERETPRCPHFGVCGGCQQQHASVDLQQRSKSAALARLMKHDVSEVIADVPWGYRRRARLSLNYLPKTQQLQMGFRKAGSSDIVDVKQCPILAPQLEALLPKVRACLGSLQAMRHLGHVELVQATSGTLMILRHTAPLSSADREKLERFSHSEGLDLYLAPDSEILETVSGEMPWYDSNGLRLTFSPRDFIQVNAGVNQKMVARALEWLDVQPEDRVLDLFCGMGNFTLPLATQAASVVGVEGVPALVEKGQQNARLNGLQNVTFYHENLEEDVTKQPWAKNGFDKVLLDPARAGAAGVMQQIIKLEPIRIVYVSCNPATLARDSEALLKAGYTIARLAMLDMFPHTGHLESMVLFSRVK | 5.4 ± 0.1 h | 4.34 ± 0.43 h | 4.54 ± 0.058 h | 3.9767 ± 0.00076 h | 2.96 ± 0.12 h | 5.12 ± 0.17 h | 9.07 ± 0.16 h | 4.203 ± 0.032 h | 6.93 ± 0.14 h | 4.49 ± 1 h | 10.7 ± 2.4 h | 5.11 ± 0.95 h
MAQIDFRKKINWHRRYRSPQGVKTEHEILRIFESDRGRIINSPAIRRLQQKTQVFPLERNAAVRTRLTHSMEVQQVGRYIAKEILSRLKELKLLEAYGLDELTGPFESIVEMSCLMHDIGNPPFGHFGEAAINDWFRQRLHPEDAESQPLTDDRCSVAALRLRDGEEPLNELRRKIRQDLCHFEGNAQGIRLVHTLMRMNLTWAQVGGILKYTRPAWWRGETPETHHYLMKKPGYYLSEEAYIARLRKELNLALYSRFPLTWIMEAADDISYCVADLEDAVEKRIFTVEQLYHHLHEAWGQHEKGSLFSLVVENAWEKSRSNSLSRSTEDQFFMYLRVNTLNKLVPYAAQRFIDNLPAIFAGTFNHALLEDASECSDLLKLYKNVAVKHVFSHPDVERLELQGYRVISGLLEIYRPLLSLSLSDFTELVEKERVKRFPIESRLFHKLSTRHRLAYVEAVSKLPSDSPEFPLWEYYYRCRLLQDYISGMTDLYAWDEYRRLMAVEQ | 5.23 ± 0.2 h | 6.52 ± 1.8 h | 5.63 ± 0.46 h | 5.16 ± 0.065 h | 3.281 ± 0.016 h | 6.17 ± 0.39 h | 11.6 ± 0.46 h | 6.14 ± 1.6 h | 11 ± 0.68 h | 5.52 ± 0.37 h | 12.2 ± 0.22 h | 5.726 ± 0.025 h
MAQITTTDANEFSSSAEFIPMRGFSNCHLQTMLPRLFRRQVKFTPYWQRLELPDGDFVDLAWSENPAQAQHKPRLVVFHGLEGSLNSPYAHGLVEAAQKRGWLGVVMHFRGCSGEPNRMHRIYHSGETEDASWFLRWLQREFGHAPTAAVGYSLGGNMLACLLAKEGNDLPVDAAVIVSAPFMLEACSYHMEKGFSRVYQRYLLNLLKANAARKLAAYPGTLPINLAQLKSVRRIREFDDLITARIHGYADAIDYYRQCSAMPMLNRIAKPTLIIHAKDDPFMDHQVIPKPESLPPQVEYQLTEHGGHVGFIGGTLLHPQMWLESRIPDWLTTYLEAKSC | 3.69 h |  |  |  |  |  | 3.84 h |  |  | 2.34 h | 4.3 h | 
MAQLYFYYSAMNAGKSTALLQSSYNYQERGMRTVVYTAEIDDRFGAGKVSSRIGLSSPAKLFNQNSSLFDEIRAEHEQQAIHCVLVDECQFLTRQQVYELSEVVDQLDIPVLCYGLRTDFRGELFIGSQYLLAWSDKLVELKTICFCGRKASMVLRLDQAGRPYNEGEQVVIGGNERYVSVCRKHYKEALQVDSLTAIQERHRHD | 4.73 ± 0.29 h | 3.97 ± 0.089 h | 5.17 ± 1.3 h | 3.82 ± 0.42 h | 2.47 ± 0.051 h | 4.98 ± 0.062 h | 10.3 ± 0.56 h | 3.86 ± 0.31 h | 6.8 ± 0.12 h | 5.92 ± 0.58 h | 11.7 ± 0.69 h | 4.06 ± 0.5 h
MARFVVLVIDSFGVGAMKDVTLVRPQDAGANTCGHILSQLPHLQLPTLETLGLINALGYAPGDMQPSDSATWGVAELQHEGGDTFMGHQEILGTRPLPPLRMPFRDVIDRVEQALVSAGWQVERRGDDLQFLWVNQAVAIGDNLEADLGQVYNITANLSVISFDDAIKIGRIVREQVQVGRVITFGGLLTDSQRILDAAESKEGRFIGINAPRSGAYDNGFQVVHMGYGVDEKVQVPQKLYEAGVPTVLVGKVADIVNNPYGVSWQNLVDSQRIMDITLNEFNTHPTAFICTNIQETDLAGHAEDVARYAERLQVVDRNLARLVEAMQPDDCLVVMADHGNDPTIGHSHHTREVVPVLVYQQGMIATQLGVRTTLSDVGATVCEFFRAPPPQNGRSFLSSLRFAGDTL | 4.67 h |  |  |  |  |  |  |  |  |  |  | 
